Legend:
EGFR pathway = test: Immunoblotting of EGFR pathway under PINK1-CTD overexpression; type: cell-based
From the text: FIGS. 9A and 9B show hindrance of PINK1-CTD to EGFR dimerization and activation.
(§1) It was next investigated the in vivo tumor growth of PINK1-CTD stably expressing CL1-5, PC9, H1975 and H3255 cells. It has been shown that PINK1-CTD inhibits EGFR activation. It not only downregulates EGFR downstream signaling in EGFR-addicted PC9, H1975 and H3255 cells but also attenuates STATS-Y705 phosphorylation in EGFR non-addicted CL1-5 cells (FIGS. 9A and 9B). […] In addition, the synthetic polypeptide PINK1-CTD (Genmedkia Biotechnology Corp.) was used in mouse xenograft model. 2 μM of CTD polypeptide or R9 peptide (as control group) was injected into the mouse every day or every two days (as shown by arrow in FIGS. 11A and 11B).

EGFR = EGFR dimerization assay under PINK1-CTD overexpression; type: cell-based; conditions: CL1-5, PC9, H1975 and H3255 cells (FIG. 9A)
[1] = test system: CL1-5, PC9, H1975 and H3255 cells; test: Tumor xenografts of PINK1-CTD stably expressing lung cancer cells; type: in vivo; conditions: CL1-5, PC9, H1975 and H3255 xenografts (FIGS. 6B, 6E, 6H, 6K)
From the text: FIGS. 6A-6L show tumor xenografts of shPINK1, PINK1 and PINK1-CTD stably expressing lung cancer cells. FIGs. A, D, G and J: PINK1 overexpression aggravated tumor growth in CL1-5 cells but suppressed tumor growth in PC9, H1975 and H3255 cells; FIGs. B, E, H and K: PINK1-CTD overexpression inhibited tumor growth in all cells tested; FIGs. C, F, I and L: PINK1 knockdown inhibited tumor growth in CL1-5 cells but promoted tumor growth in PC9, H1975 and H3255 cells. N=7 in each group.
as §1

[2] = test system: EGFR-TKD (amino acids 645-954); test: In vitro GST pull-down assay; type: binding; conditions: recombinant GST-fused PINK1-CTD incubated with purified His-tagged EGFR-TKD; anti-His immunoblot (FIG. 3E)
From the text: To dissect the interaction between PINK1 and EGFR, it was next investigated whether these two protein kinases interact directly and through which domains they interplay. It was established a flag-fused full-length EGFR construct, EGFR-flag, (amino acids 1-1210) and 8 serial truncated EGFR-flag constructs based on different EGFR functional domains (amino acids 1-378, 1-621, 1-644, 1-690, 1-954, 645-1210, 645-954, 955-1210) (FIG. 3A). Each of these 9 constructs was co-overexpressed with full-length PINK1 in HEK293 cells. The cell lysates were immunoprecipitated by anti-flag antibody and the immunoprecipitates were immunoblotted by PINK1 antibody. […] It was simultaneously established a myc-fused full-length PINK1 construct and another 7 truncated PINK1-myc constructs containing amino acids 1-509, 1-155, 156-509, 156-309, 310-428, 429-581 and 78-581, respectively (FIG. 3C). Each of these 8 constructs was co-transfected with full-length EGFR-flag in HEK293 cells. The cell lysates were immunoprecipitated by anti-myc antibody and immunoblotted with anti-flag antibody. […] Recombinant GST-fused PINK1-CTD (amino acids 510-581) and negative-control construct GST-fused PINK1310-428 (amino acids 310-428) were individually incubated with purified His-tagged EGFR-TKD (amino acids 645-954) and analyzed by immunoblotting with anti-His antibody (FIG. 3E). […]

H1975 [3] = test: H1975 lung cancer mouse xenograft model, CTD treatment; type: in vivo; conditions: 2 μM injected every day or every two days, vs R9 (FIG. 11B)
From the text: (§2) R9: a peptide consisting of 9 arginine residues.
as §1

CL1-5 [4] = test: CL1-5 lung cancer mouse xenograft model, CTD treatment; type: in vivo; conditions: CL1-5 xenograft; 2 μM injected every day or every two days; vs R9 (FIG. 11A)
From the text: as §2, §1

HER2 = target: T1, HER2 (Homo sapiens, UniProt P04626); test: HER2 phosphorylation in CL1-5 cells co-cultured with CTD polypeptide; type: cell-based; conditions: CL1-5 cell (FIG. 5B)
T1 construct: endogenous in cells; host or cells: CL1-5 cells
From the text: as §2
(§3) To determine the interaction between PINK1-CTD and HER1 or HER2, PINK1-CTD polypeptide was co-cultured with CL1-5, HOP62, PC9 or H1975 cells. In this example, the used PINK1-CTD was synthesized from Genmedkia Biotechnology Corp., and it was conjugated with 9 arginine residues for membrane attaching and internalization. The group in which the cells were co-cultured with a peptide only having 9 arginine residues (R9) was used as control group.

Hop62 = test: In vitro MTT assay, Hop62; type: cell-based; conditions: 2 μM (FIG. 11C)
CL1-5 [5] = test: In vitro MTT assay, CL1-5; type: cell-based; conditions: 2 μM (FIG. 11C)
H1975 [6] = test: In vitro MTT assay, H1975; type: cell-based; conditions: 2 μM (FIG. 11C)
PC9 = test: In vitro MTT assay, PC9; type: cell-based; conditions: 2 μM (FIG. 11C)
EGFR (HER1) [7] = target: T2, EGFR (HER1) (Homo sapiens, UniProt P00533, L858R/T790M); test: EGFR (HER1) phosphorylation in lung cancer cells co-cultured with CTD polypeptide; type: cell-based; conditions: H1975 cells; 2 μM; vs R9 control (FIG. 5A)
T2 construct: endogenous in cells; host or cells: CL1-5, HOP62, PC9, H1975 lung cancer cells
From the text: as §2, §3

EGFR (HER1) [8] = test: as above; type: cell-based; conditions: PC9 cells; 2 μM; vs R9 control (FIG. 5A)
From the text: as §2, §3

EGFR (HER1) [9] = target: T3, EGFR (HER1) (Homo sapiens, UniProt P00533); test: as above; type: cell-based; conditions: 2 μM, vs R9 control (FIG. 5A)
T3 construct: endogenous in cells; host or cells: CL1-5, HOP62, PC9, H1975 lung cancer cells
From the text: as §2, §3

B1: PINK1-CTD: PINK1 C-terminal domain, amino acids 510 to 581 of PINK1 (SEQ ID NO: 1); overexpressed / stably expressed in cells (protein, listed as Homo sapiens)
chain: SLWGEHILALKNLKLDKMVGWLLQQSAATLLANRLTEKCCVETKMKMLFLANLECETLCQAALLLCSWRAAL
EGFR downstream signaling (EGFR pathway; EGFR-addicted PC9, H1975 and H3255 cells (FIG. 9B)): concurrently downregulated | phosphorylated EGFR-Y1068 to total EGFR ratio (EGFR pathway; all cells analyzed (FIG. 9B)): a decrease in phosphorylated EGFR-Y1068 to total EGFR ratio | STAT3-Y705 phosphorylation (EGFR pathway; wild-type EGFR CL1-5 cells (FIG. 9B)): only a decrease in STAT3-Y705 phosphorylation | EGFR dimer to monomer ratio (EGFR): a decrease in EGFR dimer to monomer ratio | in vivo tumor growth of PINK1-CTD stably expressing cells [1]: exerted inhibitory effects in all the cells tested

B2: GST-fused PINK1-CTD: Recombinant GST-fused PINK1 C-terminal domain, amino acids 510-581 of PINK1 (protein)
chain: B1 chain
modifications: left off: a dimerising Fc or GST
notes: Recombinant GST-fused PINK1 C-terminal domain, amino acids 510-581 of PINK1
direct binding to EGFR-TKD [2]: directly bound to EGFR-TKD

B3: CTD polypeptide: Synthesized PINK1-CTD (Genmedkia Biotechnology Corp.), conjugated with 9 arginine residues for membrane attaching and internalization (peptide)
peptide: SLWGEHILALKNLKLDKMVGWLLQQSAATLLANRLTEKCCVETKMKMLFLANLECETLCQAALLLCSWRAALRRRRRRRRR
in vivo tumor growth (H1975 [3]): inhibited in vivo tumor growth | in vivo tumor growth (CL1-5 [4]): inhibited in vivo tumor growth | HER2 phosphorylation (HER2): inhibited HER2 phosphorylation in CL1-5 cell in a dose-dependent manner | cell viability (MTT) (Hop62): reduced | cell viability (MTT) (CL1-5 [5]): reduced | cell viability (MTT) (H1975 [6]): reduced | cell viability (MTT) (PC9): reduced | EGFR (HER1) phosphorylation (EGFR (HER1) [7]): effectively inhibited | EGFR (HER1) phosphorylation (EGFR (HER1) [8]): effectively inhibited | EGFR (HER1) phosphorylation (EGFR (HER1) [9]; CL1-5 cells): effectively inhibited | EGFR (HER1) phosphorylation (EGFR (HER1) [9]; HOP62 cells): effectively inhibited
